{"source": "paper PMC6346101", "about": "(2019)", "binders": {"B1": {"name": "human importin-α7 without its IBB domain (amino-acids 58 to 536) (domain or fragment)", "chain": "not shown"}}, "biological_target": "Biotinylated D/NP_(TAIL) fused to a biotinylation motif (Influenza D virus, strain …, UniProt A0A0E3VZU8 505-552)", "assay": "SPR", "data": [{"binder": "B1", "values": [{"measurement": "koff", "result": 0.09, "unit": "s⁻¹"}]}]}
